Test results as given in the supplement of paper PMC9170038.

System: MS2 coat protein
Assay: apparent KD of MS2 coat protein; designed switch direction (-1 OFF switch, 1 ON switch): -1; higher = weaker reporter binding
Settings: Eterna round: R98
Description: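 RNA-MaP: designed FMN/MS2 RNA switches (84 nt design region) are transcribed on-chip within common flanks and titrated with SNAP-549-labelled MS2 coat protein (about 1-3000 nM) in 100 mM Tris pH 7.5, 80 mM KCl, 4 mM MgCl2, without or with 200 uM FMN. Median apparent KD per design; activation ratio = KD,OFF / KD,ON.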

Sequence | apparent KD of MS2 coat protein (input ligand: FMN 200 uM) [nM] | apparent KD of MS2 coat protein (input ligand: none) [nM]
CACCGUUACAGAGGAUAUGACACAUGAGGAUCACCCAUGUAAUAAAUGAGAAUUUCGAAUGUAACUCAGAAGGCUGGAAUCGGC [JieuxMod 1 - Jieux - Exclusion NG 2] | 61.6 | 25.9
CCGGGCCCGGGAGGAUAUACAUGAGGAUCACCCAUGUAUUCUCGGCCCGGCGAAAGCCGGGCCAUGUAGAAGGCCCGGGCCCGG [high melting point] | 103 | 24.3
GCGGGAUGAGUCGUUGGUUCACAUGAGGAUCACCCAUGUAGGGAGGAUAUGCAUCUGGUCCCGGAGCAGAAGGCCCUGCAUCGA [Raedxea] | 1540 | 555
GUCAGGAAUGUAGGAUAUCGUCAGGAAUACUGGCGAGAAGGACAUGAGGAUCACCCAUGUAAAAUGAAAGAUAAUAAACCUGGC [Exclsuion NG 1/2-C1] | 31.9 | 18.7
UCGAACGGAAACAAAGUCAAUAGACAUGAGGAUCACCCAUGUAAGGAUAUGCCUACUAAAAGUAGGCAGAAGGUACGCGUUCGA [Contusion 5 - Jieux - Exclusion NG 3] | 27.2 | 18.3
